Assay results reported in patent US20240059784A1 (Eli Lilly, published 2024).
Changes are numbered by the printed parent chain. Names and notes keep the numbering of the source.

T1: cynomolgus TfR ECD (cynomolgus)
T1 chain: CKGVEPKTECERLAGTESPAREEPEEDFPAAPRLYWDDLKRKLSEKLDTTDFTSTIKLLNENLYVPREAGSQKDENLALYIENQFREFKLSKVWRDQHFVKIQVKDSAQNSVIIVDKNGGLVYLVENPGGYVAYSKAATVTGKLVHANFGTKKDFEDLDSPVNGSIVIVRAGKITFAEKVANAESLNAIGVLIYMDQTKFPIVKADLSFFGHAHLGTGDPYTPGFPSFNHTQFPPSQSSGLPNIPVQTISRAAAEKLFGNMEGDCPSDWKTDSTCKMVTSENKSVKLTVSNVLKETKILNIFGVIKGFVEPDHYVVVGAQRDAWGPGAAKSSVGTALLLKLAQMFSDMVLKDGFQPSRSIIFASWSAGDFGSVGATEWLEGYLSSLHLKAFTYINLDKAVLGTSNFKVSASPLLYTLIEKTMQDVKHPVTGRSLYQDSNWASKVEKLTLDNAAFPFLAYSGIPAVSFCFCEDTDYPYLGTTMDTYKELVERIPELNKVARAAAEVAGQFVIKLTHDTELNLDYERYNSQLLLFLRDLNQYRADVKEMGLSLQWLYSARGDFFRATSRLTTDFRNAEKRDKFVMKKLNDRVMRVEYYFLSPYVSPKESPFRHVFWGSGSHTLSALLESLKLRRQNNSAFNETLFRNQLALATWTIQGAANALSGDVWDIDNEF

B1: TBP15-MAPT siRNA (dsRNA No. 39 in Table 11b) (antibody)
heavy: EVQLVESGGGLVKPGGSLRLSCVASGFTFSSYSMNWVRQAPGKGLEWVSSISSSSSYIYYADSVKGRFTISRDNAKNSLYLQMNSLRAEDTAVYYCARRHGYSNSDAFDNWGQGTLVTVSSASTKGPCVFPLAPCSRSTSESTAALGCLVKDYFPEPVTVSWNSGALTSGVHTFPAVLQSSGLYSLSSVVTVPSSSLGTKTYTCNVDHKPSNTKVDKRVESKYGPPCPPCPAPEAAGGPSVFLFPPKPKDTLMISRTPEVTCVVVDVSQEDPEVQFNWYVDGVEVHNAKTKPREEQFNSTYRVVSVLTVLHQDWLNGKEYKCKVSNKGLPSSIEKTISKAKGQPREPQVSTLPPSQEEMTKNQVSLMCLVYGFYPSDIAVEWESNGQPENNYKTTPPVLDSDGSFFLYSVLTVDKSRWQEGNVFSCSVMHEALHNHYTQKSLSLSLG
light: DIQMTQSPSAMSASVGDRVTITCRASQGISHYLVWFQQKPGKVPKRLIYAASSLQSGVPSRFSGSGSGTEFTLTISSLQPEDFATYYCLQHNSYPWTFGQGTKVEIKRTVAAPSVFIFPPSDEQLKSGTASVVCLLNNFYPREAKVQWKVDNALQSGNSQESVTEQDSKDSTYSLSSTLTLSKADYEKHKVYACEVTHQGLSSPVTKSFNRGEC
chain: ESKYGPPCPPCPAPEAAGGPSVFLFPPKPKDTLMISRTPEVTCVVVDVSQEDPEVQFNWYVDGVEVHNAKTKPREEQFNSTYRVVSVLTVLHQDWLNGKEYKCKVSNKGLPSSIEKTISKAKGQPREPQVYTLPPSQGDMTKNQVQLTCLVKGFYPSDIAVEWESNGQPENNYKTTPPVLDSDGSFFLASRLTVDKSRWQEGNVFSCSVMHEALHNHYTQKSLSLSLG
modifications: MAPT siRNA (dsRNA No. 39) conjugated through a linker at the engineered cysteine (S124C, EU numbering, by the name in Table 6b)
notes: Protein-siRNA conjugate of TBP15
B2: TBP1 (TBD1 Fab-hIgG4PAA Fc) (antibody, V domains shown)
VH: EVQLVESGGGLVKPGGSLRLSCVASGFTFSSYSMNWVRQAPGKGLEWVSSISRSSSYIYYADSVKGRFTISRDNAKNSLYLQMNSLRAEDTAVYYCAREHGYSNSDAFDIWGQGTLVTVSS
VL: DIQMTQSPSAMSASVGDRVTITCRASQGISNYLAWFQQKPGKVPKRLIYAASSLQSGVPSRFSGSGSGTEFTLTISSLQPEDFATYYCLQHNSYPRTFGQGTKVEIKR
B3: TBP3 (TBD3 Fab-hIgG4PAA Fc) (antibody, V domains shown)
VH: B2 VH with E99I
VL: B2 VL with N31H, A34V
notes: Fab-Fc format, one HC and one LC
B4: TBP5 (TBD5 Fab-hIgG4PAA Fc) (antibody, V domains shown)
VH: EVQLVESGGGLVQPGGSLRLSCAASGFTFRTYWMHWVRQAPGKGLLWVSRINGDGSRTNYADSVKGRFTISRDNAKKTLYLQMNSLRAEDTAVYFCARSSYAFDVWGQGTMVTVSS
VL: DVVMTQTPLSLPVTPGEPASISCRSSQSLLDSDDGSTYLDWYLQKPGQSPQLLIYLLSNRASGVPDRFSGSGSGTVFTLKISSVEAADVGVYYCMQRIEFPLTFGGGTKVEIKR
notes: as for B3
B5: TBP6 (TBD6 Fab-hIgG4PAA Fc) (antibody, V domains shown)
VH: B4 VH with L46V, G53S, K77N, F95Y, M111L
VL: B4 VL with V2I, V76D, S83R, A87E
notes: as for B3
B6: TBP14-MAPT siRNA (dsRNA No. 38 in Table 11b) (antibody)
heavy: B1 heavy with C128S, A379C
light: B1 light
chain: B1 chain with A160C
modifications: MAPT siRNA (dsRNA No. 38) conjugated through a linker at the engineered cysteine (A378C, EU numbering, by the name in Table 6b)
notes: Protein-siRNA conjugate of TBP14; also called TBP14-MAPT siRNA conjugate
B7: TBP14 (TBD4-one arm heteromab, A378C) (antibody, human IgG4 S228P, kappa, F234A L235A)
heavy: B1 heavy with C128S, A379C
light: B1 light
chain: B1 chain with A160C
notes: One-armed antibody: two heavy chains (HC1 full, HC2 Fc only) and one light chain; no LC2
B8: TBP14-SNCA siRNA (dsRNA No. 10 in Table 11a) (antibody)
heavy: B1 heavy with C128S, A379C
light: B1 light
chain: B1 chain with A160C
modifications: SNCA siRNA (dsRNA No. 10) conjugated through a linker at the engineered cysteine (A378C, EU numbering, by the name in Table 6b)
notes: Protein-siRNA conjugate of TBP14; also called TBP14-SNCA siRNA conjugate

The binders below were run against T2, human TfR ECD (His-tagged) (human, UniProt P02786 89-760) (assay: SPR (Biacore 8K), 37 C; TfR ECD amine-coupled to CM4 chip, TBP as analyte; multi-cycle kinetics, 2-state fit; n = 3; conjugated to MAPT siRNA (dsRNA No. 39 in Table 11b)).
T2 construct: also called hTfR-ECD-6His; his-tagged hTfR-ECD
Experimental: (§1) Target human and cynomolgous TfR ECD's were immobilized on a CM4 chip (Cytiva P/N 29104989) using standard NHS-EDC amine coupling. The TfR binding proteins were prepared at a final concentration of 0.3, 0.1, 0.033, 0.01, 0.0033, 0.001, 0.00033, 0.0001 μM respectively by dilution of stock solution into running buffer.
(§2) Binding analysis was performed in a multi-cycle kinetics manner. Each analysis cycle consists of (1) injection of the lowest to highest concentration proteins over all Fc at 50 μL/min for 140 seconds followed by return to buffer flow for 400 seconds to monitor dissociation phase; (2) regeneration of chip surfaces with injection of 3M magnesium chloride, for 30 seconds at 100 μL/min over all cells; and (3) equilibration of chip surfaces with a 50 μL (30-sec) injection of HBS-EP+. Data were processed using standard double-referencing and fit to a 2-state binding model using Biacore 8K Evaluation software, to determine the association rate (kₒₙ, M⁻¹s⁻¹ units), dissociation rate (koff, s⁻¹ units), and Rₘₐₓ (RU units). The equilibrium dissociation constant (KD) is calculated from the relationship KD=koff/kₒₙ, and is in molar units.

Binder | Kd [nM]
B1 | 213

Each binder was assayed against T2, human TfR ECD (His-tagged) (assay: SPR (Biacore 8K), 25 C; His-tagged TfR ECD captured by anti-His antibody, TBP as analyte; single-cycle kinetics, 2-state fit).
Experimental: (§3) An anti-His antibody was immobilized on a CM5 chip (Cytiva P/N 29104988) using standard NHS-EDC amine coupling on all four flow cells (Fc). Target (human or cynomolgus TfR ECD) were prepared in the running buffer at final concentration of 500 μg/mL.
(§4) Binding analysis was performed in a single-cycle kinetics manner. Each analysis cycle consists of (1) capturing the target (His-tagged human or cynomolgus TfR ECD) samples on separate flow cells (Fc2, Fc3 and Fc4); (2) injection of the lowest to highest concentration of antibodies or proteins over all Fc at 30 μL/min for 900 seconds followed by return to buffer flow for 1800 seconds to monitor dissociation phase; (3) regeneration of chip surfaces with injection of 10 mM glycine, pH 1.5, for 30 seconds at […] over all cells; and (4) equilibration of chip surfaces with a 10 μL (60-sec) injection of HBS-EP+. Data were processed using standard double-referencing and fit to a 2-state binding model using Biacore 8K Evaluation software, to determine the association rate (kₒₙ, M⁻¹s⁻¹ units), dissociation rate (koff, s⁻¹ units), and Rₘₐₓ (RU units). The equilibrium dissociation constant (KD) is calculated from the relationship KD=koff/kₒₙ, and is in molar units.
Target sequence in this assay (P02786 other isoform, or with tags, fused parts or gaps): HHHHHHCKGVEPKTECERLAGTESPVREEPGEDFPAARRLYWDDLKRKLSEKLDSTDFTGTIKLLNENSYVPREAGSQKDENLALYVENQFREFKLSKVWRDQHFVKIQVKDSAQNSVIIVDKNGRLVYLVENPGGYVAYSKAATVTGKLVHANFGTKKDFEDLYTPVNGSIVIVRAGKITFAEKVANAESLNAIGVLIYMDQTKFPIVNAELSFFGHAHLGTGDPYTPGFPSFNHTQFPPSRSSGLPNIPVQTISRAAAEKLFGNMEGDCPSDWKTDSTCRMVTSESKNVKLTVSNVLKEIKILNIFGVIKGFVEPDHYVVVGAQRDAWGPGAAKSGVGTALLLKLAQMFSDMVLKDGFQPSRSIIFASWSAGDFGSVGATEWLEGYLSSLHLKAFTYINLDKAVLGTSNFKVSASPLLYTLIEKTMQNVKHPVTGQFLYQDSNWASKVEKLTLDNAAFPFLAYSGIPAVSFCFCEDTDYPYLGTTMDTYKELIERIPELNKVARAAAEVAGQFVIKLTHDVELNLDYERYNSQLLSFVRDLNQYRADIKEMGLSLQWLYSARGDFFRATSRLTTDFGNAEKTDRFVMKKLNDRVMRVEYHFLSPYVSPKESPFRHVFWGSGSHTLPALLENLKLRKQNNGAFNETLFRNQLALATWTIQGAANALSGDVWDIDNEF

Binder | Kd [pM]
B2 | 110
B3 | 0.048
B4 | 590
B5 | 60

Biological target: T1, cynomolgus TfR ECD
Experiment: as above
Experimental: as §3, §4

Binder | Kd [nM]
B2 | 145
B3 | 0.015
B4 | 1.47
B5 | 7.7

These binders were tested against T2, human TfR ECD (His-tagged) (assay: SPR (Biacore 8K), 37 C; TfR ECD amine-coupled to CM4 chip, TBP as analyte; multi-cycle kinetics, 2-state fit; n = 3).
Experimental: as §1, §2

Binder | Kd [nM]
B6 | 258
B7 | 154
B8 | 541
B2 | 0.966
B3 | 0.005
B4 | 4.25
B5 | 2.25

Biological target: T1, cynomolgus TfR ECD
Experiment: as above
Experimental: as §1, §2

Binder | Kd [nM]
B3 | 0.254
B4 | 156
B5 | 92.5

The binders below were run against T3, cynomolgus TfR ECD (cynomolgus) in the same assay as above.
T3 construct: extracellular domain; amine-coupled in the 37 C assay; also called Cyno TfR; His-tagged cynomolgus TfR ECD
Experimental: as §1, §2

Binder | Kd [nM]
B6 | 448
B7 | 300
B1 | 199

What follows are binders tested against T4, human TfR (cell-bound) (human, UniProt P02786 1-760) (assay: flow cytometry on hCMEC-D3 cells (endogenous human TfR), on ice, PE-labeled secondary).
T4 construct: Endogenous receptor on hCMEC-D3 cells (stated); also called hTFR; human transferrin receptor on hCMEC-D3 cells
Experimental: (§5) Human endothelial line hCMEC-D3 (EMD Millipore SC066), endogenously expressing human TfR and MDCK cell line (ATCC CCL-34), engineered to express cynomolgus TfR were utilized to evaluate antibody/protein binding to cell-bound TfR. Cells were grown and maintained at submaximal confluence and detached from cultureware using Accutase cell detachment solution, washed, and allocated at 50000 cells per well for assessment of binding. Cells were treated with a viability stain then subsequently incubated with titrated concentrations of TfR binding proteins on ice. Cells were washed and binding of test antibodies or proteins was detected using a PE-labeled secondary reagent. Cells were then washed and read on the same day using a BioRad ZE5 cytometer. Analysis was performed post-acquisition in FlowJo, analyzing fluorescence of single, viable, non-debris events. EC50 values were derived by plotting geometric median PE intensity values across a given sample titration and fitting a sigmoidal (4PL) response curve in GraphPad Prism 8.3.0.

T4 sequence (P02786 whole entry): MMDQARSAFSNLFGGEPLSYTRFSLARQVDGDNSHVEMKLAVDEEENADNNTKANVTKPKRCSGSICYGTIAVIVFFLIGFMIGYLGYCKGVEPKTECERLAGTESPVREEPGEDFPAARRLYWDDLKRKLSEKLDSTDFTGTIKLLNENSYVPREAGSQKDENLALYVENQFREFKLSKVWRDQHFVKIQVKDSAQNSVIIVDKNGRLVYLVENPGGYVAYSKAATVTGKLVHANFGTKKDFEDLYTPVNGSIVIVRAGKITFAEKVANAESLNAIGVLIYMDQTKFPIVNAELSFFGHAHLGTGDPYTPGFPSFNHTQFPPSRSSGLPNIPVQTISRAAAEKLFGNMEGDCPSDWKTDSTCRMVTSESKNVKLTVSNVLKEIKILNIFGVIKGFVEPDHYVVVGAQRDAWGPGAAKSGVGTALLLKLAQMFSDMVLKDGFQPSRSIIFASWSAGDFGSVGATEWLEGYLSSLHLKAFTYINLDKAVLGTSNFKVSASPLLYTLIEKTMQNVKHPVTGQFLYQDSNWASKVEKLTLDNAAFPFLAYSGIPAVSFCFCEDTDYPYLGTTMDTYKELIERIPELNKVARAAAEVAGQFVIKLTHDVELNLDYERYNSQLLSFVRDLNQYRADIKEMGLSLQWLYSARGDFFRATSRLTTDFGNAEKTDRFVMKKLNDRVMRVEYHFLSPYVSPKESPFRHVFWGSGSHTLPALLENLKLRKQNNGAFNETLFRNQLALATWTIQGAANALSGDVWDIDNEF

Binder | EC50 [nM]
B6 | 764
B8 | 298
B1 | 75.6
B2 | 0.47
B3 | 0.14
B4 | 4.83
B5 | 1.2

The binders below were run against T5, cynomolgus TfR (on MDCK cells) (cynomolgus, UniProt H9EXL1 1-760 (rhesus entry)) (assay: flow cytometry on MDCK cells engineered to express cynomolgus TfR, on ice, PE-labeled secondary).
T5 construct: whole, on cells; also called Cyno MDCK
Experimental: as §5

Binder | EC50 [nM]
B6 | 453
B8 | 225
B1 | 57.1
B2 | 510
B3 | 0.15
B4 | 1.63
B5 | 0.76
